Experimental data as given in patent publication US20070015228A1.

Target: normal human IgG (Zymed) (human)
Assay: ELISA, 8A3 coated on plate, anti-human IgG Fc-HRP detection

fold (binding to normal human IgG against humanized anti-CD20 IgG): < 50000 fold
B1: anti-idiotypic antibody 8A3 (antibody, V domains shown)
VH: QVQLQQSGAELAKPGASVKMSCKASGYNFTTYWMHWVKQRPGQGLEWIGYINPSTDYTEYNQKFKYKATLTADKSSSTAYIQLSSLTSEDSAVYYCARWWDYDWYFDVWGAGTPLTVSS
VL: DIVMTQSQEFMSTSVGDRVSVTCKASQTVDTNVAWYQQKLGQSPKPLIYSASYRCSGVPDRFTGSGSRTDFTLTITNVQSEDLAEYFCQQYHSFPWTFGGGTKVEIKR
